How the values were obtained:
[1] = system: proteases trypsin and α-chymotrypsin; assay: Protease digestion stability (trypsin and α-chymotrypsin, SDS-PAGE, Coomassie blue); assay type: in vitro ADME; settings: trypsin 0.01 mg/ml and α-chymotrypsin 0.01 mg/ml, 37° C., 30 min; versus wild type; FIG. 3A
Procedure: Recombinant Amuc_1100 wild type (WT) and mutant protein are digested by proteases trypsin (0.01 mg/ml) and α-chymotrypsin (0.01 mg/ml) at […] for 30 min. The samples are subjected to SDS-PAGE gel electrophoresis and Coomassie blue staining. Lane A: Amuc_1100 (31-317, Y289A) without proteases; Lane B: Amuc_1100 (31-317, Y289A) with proteases; Lane C: Amuc_1100 (31-317, WT) without proteases; Lane D: Amuc_1100 (31-317, WT) with proteases; MW: molecular weight marker (KD).)
Some mutants of the […] (31-317) may reduce protein degradation by proteases. The amino acid sequence (SEQ ID NO: 146) and nucleotide sequence (SEQ ID NO: 147) of Amuc_1100 (31-317, Y289A) with 6×His tag at the C-terminus expressed by the plasmid described above (FIG. 1) were shown in FIG. 2. The recombinant Amuc_1100 (31-317) protein and mutant protein (31-317, Y289A) were digested by proteases trypsin (0.01 mg/ml) and α-chymotrypsin (0.01 mg/ml) at 37° C. for 30 min. The samples were then subjected to SDS-PAGE gel electrophoresis and Coomassie blue staining.

[2] = system: spontaneous breast cancer in MMTV-PyVT transgenic C57BL/6 female mice; assay: Spontaneous breast cancer model, tumor growth rate and H&E staining; assay type: in vivo; settings: Amuc_1100 proteins 3 μg/kg oral gavage daily 4 weeks; anti-PD-1 10 mg/kg i.v. every three days 3 weeks; FIG. 4, FIG. 5
Procedure: The MMTV-PyVT transgenic C57BL/6 female mice were used to develop spontaneous breast cancer. Mice at age of 9.5 weeks were randomly divided into 6 groups with 4-5 mice in each group and were subjected to agent treatment. The mice in the control group were treated with PBS by oral gavage daily for 4 weeks, plus PBS i.v. injection daily after one week of oral gavage for 3 weeks. […] All the spontaneously developed tumors were monitored. Tumor sizes were measured twice every week. The health status of mice was closely monitored. Tumor growth rate of each tumor in mouse following agent treatment was analyzed. […]

[3] = Body weight gain in mouse model; assay type: in vivo, mice; settings: 3 μg/kg oral gavage daily for 4 weeks; compared to PBS control group
Procedure: Mice at age of 9.5 weeks were randomly divided into 3 groups with 4-5 mice in each group and were subjected to agent treatment. The mice in the control group and test groups were treated with PBS, Amuc_1100 (31-317), or Amuc_1100 (31-317, Y289A) (3 μg/kg) by oral gavage daily for 4 weeks, respectively. The body weight of each mouse in each group was measured twice every week.

TLR2 [4] = target: T1, TLR2 (Homo sapiens, UniProt O60603); assay: TLR2 reporter gene assay in HEK293 cells (QUANTI-Blue); assay type: cell-based; set-up: host or cells: HEK293; settings: HEK293 cells expressing human TLR2 and reporter gene; FIG. 3B
Procedure: HEK293 cells expressing human TLR2 receptor and its reporter gene (InvivoGen, hkb-htlr2) were seeded in a 96-well plate and treated by […] (31-317) or mutant recombinant Amuc_1100 (31-317, Y289A). The reporter gene activity was detected by QUANTI-Blue™ (InvivoGen, rep-qbs2), and the cell viability was detected by CellTiterGlo (Promega, G7573) by following the reagent kits' instruction. The results were shown in FIG. 3B (Pam3CSK4 is the positive control for TLR2 ligand). […] All agents show no significant impact on cell viability.

TLR2 [5] = target: T1, TLR2; assay: TLR2 reporter assay of Amuc_1100 secreted from engineered EcN; assay type: cell-based; set-up: expressed in transfected cells; host or cells: HEK293; settings: HEK293/TLR2 reporter cells, 24 hours, colorimetric; protein isolated from CBT1108 culture media; FIG. 17
Procedure: The genetically engineered bacteria EcN strain CBT1108 obtained in Example 6 were cultured, and the culture media was collected at late exponential growth stage. The […] (31-317) protein was isolated from the culture media by his-tag antibody-containing resin column. The endotoxin was removed from the isolated Amuc_1100 (31-317) protein.
The Amuc_1100 (31-317) activity was tested by TLR2 reporter assay. Specifically, HEK293/TLR2 reporter cells were stimulated in 96-well plate with certain amount of protein for 24 hours, the reporter enzyme's substrate was added into the cell media and the activity was measured by colorimetric method.

T1 sequence (O60603 21-784): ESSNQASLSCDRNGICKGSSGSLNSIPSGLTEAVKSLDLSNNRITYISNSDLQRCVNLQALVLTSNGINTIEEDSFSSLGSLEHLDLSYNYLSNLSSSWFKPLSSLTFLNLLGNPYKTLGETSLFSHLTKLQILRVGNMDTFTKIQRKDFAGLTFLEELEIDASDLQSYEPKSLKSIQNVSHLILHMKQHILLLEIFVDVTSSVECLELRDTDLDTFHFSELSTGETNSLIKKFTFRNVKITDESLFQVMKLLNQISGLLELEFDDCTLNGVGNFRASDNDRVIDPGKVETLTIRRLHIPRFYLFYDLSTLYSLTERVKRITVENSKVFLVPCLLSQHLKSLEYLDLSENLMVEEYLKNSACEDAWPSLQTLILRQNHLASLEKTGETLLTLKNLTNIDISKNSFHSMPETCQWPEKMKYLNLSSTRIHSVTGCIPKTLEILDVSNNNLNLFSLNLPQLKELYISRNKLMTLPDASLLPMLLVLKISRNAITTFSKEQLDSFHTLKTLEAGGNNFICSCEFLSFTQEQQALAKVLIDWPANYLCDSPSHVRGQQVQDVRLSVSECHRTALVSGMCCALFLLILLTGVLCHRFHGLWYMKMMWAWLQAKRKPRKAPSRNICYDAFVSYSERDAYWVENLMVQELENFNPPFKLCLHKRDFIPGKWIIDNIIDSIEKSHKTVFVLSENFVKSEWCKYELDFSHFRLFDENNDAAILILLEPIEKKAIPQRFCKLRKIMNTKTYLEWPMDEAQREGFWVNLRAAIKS

Molecule	resistance to enzyme digestion [1]	tumor growth inhibition [2]	changes in body weights [3]	EC50 for TLR2 activation (TLR2 [4]) [µg/mL]	TLR2 signal stimulation (TLR2 [5])
Amuc_1100 (31-317, Y289A): Amuc_1100 (31-317) mutant protein with single point mutation Y289A, numbering relative to SEQ ID NO: 1 (protein) MIVNSKRSELDKKISIAAKEIKSANAAEITPSRSSNEELEKELNRYAKAVGSLETAYKPFLASSALVPTTPTAFQNELKTFRDSLISSCKKKNILITDTSSWLGFQVYSTQAPSVQAASTLGFELKAINSLVNKLAECGLSKFIKVYRPQLPIETPANNPEESDEADQAPWTPMPLEIAFQGDRESVLKAMNAITGMQDYLFTVNSIRIRNERMMPPPIANPAAAKPAAAQPATGAASLTPADEAAAPAAPAIQQVIKPAMGKEQVFVQVSLNLVHFNQPKAQEPSED	more resistant to enzyme digestion compared to wild type Amuc_1100 protein	partially inhibited tumor growth	no significant changes in body weights	0.951	–
secreted Amuc_1100 (31-317) from genetically engineered EcN: Amuc_1100 protein isolated from culture media of EcN strain CBT1108 by his-tag antibody resin, endotoxin removed (protein) MIVNSKRSELDKKISIAAKEIKSANAAEITPSRSSNEELEKELNRYAKAVGSLETAYKPFLASSALVPTTPTAFQNELKTFRDSLISSCKKKNILITDTSSWLGFQVYSTQAPSVQAASTLGFELKAINSLVNKLAECGLSKFIKVYRPQLPIETPANNPEESDEADQAPWTPMPLEIAFQGDRESVLKAMNAITGMQDYLFTVNSIRIRNERMMPPPIANPAAAKPAAAQPATGAASLTPADEAAAPAAPAIQQVIKPYMGKEQVFVQVSLNLVHFNQPKAQEPSED	–	–	–	–	stimulated TLR2 signal
Amuc_1100 (31-317): Naturally-occurring fragment (residues 31-317) of Akkermansia muciniphila outer-membrane protein Amuc_1100; recombinant protein (protein) MIVNSKRSELDKKISIAAKEIKSANAAEITPSRSSNEELEKELNRYAKAVGSLETAYKPFLASSALVPTTPTAFQNELKTFRDSLISSCKKKNILITDTSSWLGFQVYSTQAPSVQAASTLGFELKAINSLVNKLAECGLSKFIKVYRPQLPIETPANNPEESDEADQAPWTPMPLEIAFQGDRESVLKAMNAITGMQDYLFTVNSIRIRNERMMPPPIANPAAAKPAAAQPATGAASLTPADEAAAPAAPAIQQVIKPYMGKEQVFVQVSLNLVHFNQPKAQEPSED	–	partially inhibited tumor growth	no significant changes in body weights	0.535	–

From patent publication US20240091307A1, “COMBINATION THERAPIES OF AMUC_1100 AND IMMUNE CHECKPOINT MODULATORS FOR USE IN TREATING CANCERS” (COMMBIO THERAPEUTICS CO., LTD., priority 2020, published 2024)
